Assay results from a protein production outcome set (Wang et al. 2014).

Assay: label from the status in PepcDB records
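Note: failed if final PepcDB status was selected cloned or expressed and not failed if soluble or beyond.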

Sequence	protein production
MKAIMRRLIMTNFFNTPLFGLTLSVLAYTLGLSLYRRFPNPLTTPLLVSTALIIVILHYTGICYRDYYVGGSYLNSLIIPSTVALAVPFYKNLHLMRHHCKSILIGSTVACILNTTYTALIAKLFGMDYFLAISLFPKSVTTAMAVGISEKMQGITTVTLVVVVITGILTSVLGPVFLKMIGIKDPVAIGLSLGGTGHAVGTGTAFRYGQVAGAMGGLSIAVTGILYVFISPIVASLILR	failed
SQKSLKRGQELNNQYETKAKRLKIDPCLVVDSPFNHGFTAQEILKGAKNNGEISFLIRFWHLDQPQVVPSGIAYVEIPQMVLKFYENHCNFHDYLNNYIS	failed
MNTEAEQQLLHHARNGNAEEVRKLLEAMARAEVVADIDCKGRSKSNLGWTPLHLACYFGHKQVVQDLLKAGAKVNMLNDMGDTPLHRAAFTGRKELVMLLLEYNADTTVVNGSGQTAKEATHDKEIRQMLEAVERTQQRKLEELLLGAAREGRTAEVSALLSRPNPPDVNCSDQLGNTPLHCAAYRAHKQCVLKLLRSGADPSLKNKNDQKPLDLAHGTEMKHILVGNKVVHKALKRFEGPLWKSSRFFGWKLFWVVLEHGVLSWYRKQPDAVHNSYRQGCKHLTQAVCTVKPTDGCLFSVRCFDDTVHGFRVPKNSLQQSREKWLEAIEEHSAYSTHYCSQDQVTDDEEEDVASAMDLKESLARAQTCQQRLDREIYNFLKMIKECDVAKDMLPSFLQKADVLSEASRETCVALSDCLNLFTKQEGVRNFKLEQEQEKNKILSEALETLATEHHELERSLVEGSPPVSILSEDEFYDALSGSESEGSLTCLEAVTARAFEENEVPANSGKHRMSEGKDCGGGDALSNGIKKHRTSLPSPMFSRNDFSIWSILRKCIGMELSKITMPVIFNEPLSFLQRLTEYMEHTYLIHKASSFSDPVERMQCVAAFAVSAVASQWERTGKPFNPLLGETYELVRDDLGFRLISEQVSHHPPISAFHAEGLNNDFIFHGSIYPKLKFWGKSVEAEPKGTITLELLEHNEAYTWTNPTCCVHNIIVGKLWIEQYGNVEIINHKTGDKCVLNFKPCGLFGKELHKVEGYIQDKSKKKLCALYGKWTECLYSVDPATFDAYKKNDKKNTEEKKTSKQASTSEESDEMPVPDSESVFVIPGSALLWRIAPRPPNSAQMYNFTSFAMVLNEVDKEMETVIPKTDCRLRPDIRAMENGEIDQASEEKKRLEEKQRAARKNRSKSEEDWKTRWFHQGPNPYSGAQDWIYSGSYWDRNYFNLPDIY	failed
MADSRPRLVTGSPEGYPGHVDGRLRDARLNNPKGLTVDDRGNIYVADTVNNAIRKISEAGVTTIAGGKMVRGGGHVDGPSEDAKFSNDFDVVYLGSSCSLLVIDRGNQAIREIQLHFDDCADQYGSGFPLGIAVLVAAVFFGYMLALLQRRLSSIVSYHTDQEVFEAVPDQDPIKPVRPPLILTGDEQEKQEESFLGTLQIFISNAWVFSVELFSGMFPGLRKKQTVGLNFNHQETKHSAFSTTSWPIQESFVIHNKDEPPPVESRNATPGKIYPFMSKDATEKMQQLRQSRALYRSLDAEFLQEQQQEKHQQYHHRHHSTIPYTLYEQSSEKTNEIVFGPGQEQDQMNTHQNIHHRAHQFVSYPYGYYS	failed
SSSTEVKDNVLTEEEKAEGYTLLFNGKDFTGWKMFNGGDVKGWQVEDGVIVGYGNGGDVIADTTIKVSTDIVTVKNYHNFQIKWDWKIGAQGNSGFLYHVQEGPKYKAPFETGPEYQLIDDDNYPWVSETGKEGLEDWQKTGCNYAMYVPETKQVNPPGEWNSSMVLYKDGYVEHWLNGEKLFSFQEGSEDWKMRRYSGKWEAFPDYGISTTGKLCFQDHGSKVYFKNVKIKDLD	not failed
MSLAEPRYKADIGGGSLKLPESRIIAGLLLEGVTEDQWRHAIEVENVLQRRSPGTAKRQSSLMRNRLETMGPELWQMVRDGSTQVAIQAVFAAAIKHSTLLGDFLDLVVRDQFRMFRPDLPRKMWDQYLEQCRNRDPLMPVWQDSTANKLADCVYRILVEVGYITDSKTYRLKSVRISGEVMSYLRENNEQYVIRCIQVSIEGHHHHHH	not failed
SSFQSTTGHCVHMRGLPYRATENDIYNFFSPLNPMRVHIEIGPDGRVTGEADVEFATHEDAVAAMAKDKANMQHRYVELFLNSTAGTSG	not failed
MGNLPALSWGPAGPLARTCGTSYGASDAQDLRRHAKIGSVELTLLGTGAPAGLPRPDCPCAACATALGEAARAATALLVDGTVLLDLTPGAAFAAARAGRSLGGVRQVLLSHPHNGPAVEVPAGLPQPARVPDGRELALLTGHRVRAMPMDAPGTGYAVTGPDGQRLLYLPPGGAPAGLDETVQPYDMVAADVVGRPDALARLRAVGALGPTTDVIAVHLDHDVPPGVELRRRLAAAGARAVPDGTTLTVGVYEDVPDVPRRTLVLGGARSGKSVEAERRLESFPDVLYVATGGSRGGDTEWAERVSVHRERRPGSWRTVETCDLVPLLKEDGPPLLIDCLSLWLTDAMDSVNAWDDDEWAGGGERALRGRVEELTAAVRETGRTVVAVSNEVGSGIVPATASGRRYRDELGRLNAAFAAECEHLLLVVAGQAMVLRGG	failed
MAMNGTITTWFKDKGFGFIKDENGDNRYFHVIKVANPDLIKKDAAVTFEPTTNNKGLSAYAVKVVPESKYIYIAGERLKLTSIKSYLVYSEEVPADTRIDKENTVLSVGVLMNSIRPKSVAEPDEIRSLKKLAITTFQGTTLIFSEDEIDVDATVKLLKVLEHHHHHH	not failed
MTFTSNLPSSSEQSISPPASSFSSSTDTLKDIDIPHNGADLSTYSKFLALYCRSDKCDDFYSLEEKQNCKFGDQWLDFINTIHNLDFSESEVSGRVSERILPASLANKFTNNLGVAIKISEYTRDDERQIRGCVTTVENENSFNNWFVYHILDQSQLSLSEHPIVTKEVKYHELFADFFEKNLKNTIVNDQWNFGGRDYFIERSRYFTDRYLRIECILPAFPCKSSNEQKVYGSVPDKGEELALKRLIKATQDLVKIYPPGMKIWIVSDGHVFSDCIGVDDDVVSTYTTKLHELYKRVAIPGVDAIGFCGLNDLFFSGAASKVFDPKWVSDVEVAHYTGTQICPKSDLSRQILMKGCDTDAGRLRKQIAIEGHPRLHLYRGFSRFMMEDLSLLEHFQSYSRKKFKKIISMIAFNMIKRNDAYSNLVELIFPHHLRISIHAHTNSGPKFGIKVISNEQCSIVSSLEDLDEPKFEDFLHIPTPWHNCVVKVEDEKEKYFLTKSKVVKEALEKGMYDGVWKDTRFDIGEGGHFVIKKIS	failed
EARGFTAEDFALSHPGGALGRKLLLRVNDIMHTGDEIPHVGLQATLRDALLEITRKNLGMTAICDDDMNIIGIFTDGDLRRVFDTGVDMRDASIADVMTRGGIRIRPGTLAVDALNLMQSRHITCVLVADGDHLLGVVHMHDLLRA	not failed
MGLSKVEEKYRKSHEIFLKRLAALPKPEFDNTLPVHEKLDEIKKTVAEHQVTIICGETGSGKTTQLPKICLELGRGVAGLIGHTQPRRLAARSVAERIAEELKSEIGSAVGYKVRFTDHTSRDACVKLMTDGILLAETQTDRYLAAYDTIIIDEAHERSLNIDFLLGYLKQLLPRRPDLKVIITSATIDAERFSRHFNGAPVLEVSGRTYPVEILYRPLTGKDEDDAEVELTDAIVDAADELARHGEGDILVFLPGEREIRETAEALRKSTLRRNDEILPLFARLSHAEQHKIFHPSGAKRRIVLATNVAETSLTVPGIKYVIDTGLARVKRYSARAKVEQLHVEKISQAAARQRSGRCGRVSAGVCIRLFSEEDFNSRPEFTDPEIVRSNLAAVILRMASLNLGDVAAFPFLEMPDSRYINDGFQVLLELGAVEAVLEHHHHHH	failed
MIEMLGIKIPLRKTTILPVLSFTLSSYFLTNFIFYLQYTDYTGLVEFLLIGAPFIGRAITPITYPFLMSRINIERITYLSLGNMAILDILEFFMGTDTLALILLRVATGILFGLATSAAVELATQSRSKIIMGMTMGGWALGWILSALMSFLMGKMVLITSSFSLVFFLLIKRSNIDKKLFSNSGSISIAFSWKALLIFLLGFEPAYILQLIPSLLGENNAIEETIIAYSISFIAYIILPSIGNIRISSLLTSLMIGILGFTSFITLKAWMFIPFTVLGLGLNSLLPIIIKLMKVEVTKIGPSMNLASLSGFLIPSLVSIGDIEINSAILTLISSISLGAIVYKNLKITA	failed
MSLAEVGSKSVLFVCLGNICRSPIAEAVFRKLVTDEKVSDNWAIDSSAVSDWNVGRPPDPRAVSCLRNHGISTAHKARQITKEDFATFDYILCMDESNLRDLNRKSNQVKNCKAKIELLGSYDPQKQLIIEDPYYGNDSDFEVVYQQCLRCCKAFLEKTYEGHHHHHH	not failed
MASYDQISKNNWRYRISLGKNAETGKYEYISKTGFKRKSDAKHQAEMIGRQLRNGDYIAPSSSTFKQVADDWLKQYANDVKVSSVRAREKAIQHAIERFNTKPIQTIKKHDYQRFVDDISAQYSKNYVDSIVASTNMIFKYAYDTRLIKAMPSEGIKRPKKKVSVEELEDIEIHKKFLEKDELFQFLKVAKYHHSPQNSFEVFTTLAYTGMRAGELLALKWSDIDFENNTISITKTYYNPNNNKKHYQILTRKTESSIGKITVDPHVIQLLKDYKVNVQDTWKNELYVDNNFVFTDVNGYPLVIKKLQLWIKAILKKTDITNKQISTHSFRYTHYALLIEAGVHIKEIQERLRHKDINTTMNIYAKITNSYKKDASQKFSKLMENVSKGLF	failed
MDIQGLLERLKPFIIIVLLFSVVFYIRAEASNIGGVPADAKKFYEDADGLPYFSEMDSYYNYRLTMNYLTKGIMGDTLVDGKPYDLHSYYPPGRPVDYPPLIVYVTSAAYRVLNFFGDFSLKEVAFWMGAFIGSLCVIPAYLFVRRITNDYGGFAAALIVGLVPTYVAHTYAGFFDTDMFNFVLPLFVFWFFTEGMLASSMRGKVGYALAAAVSILVFSAAWVGYIFYLAVLIVFVAAYLVISRYILGEKPAGEFEGKLDWLIHQRELFPLLILIIAGGVLVGVFGGFSSLAGAVGGLIGATQIQATAQTTAYPNVYVSVSELQVPEFITTGAGNIFLPGQNTIVGGVGGLLVFIIGVLGVGALVWKYRQPEVVVEESENRPRAGKKSKFMRKKRAAVASEEMRHRYLLYAVLMAVWLIMSGYAVTKGSRFIPTFAMPLGLSAGIFTGFLVEYLRVRFTTTSSLALIVFVAAVAMVMPFGVSVAVKLLAGVLAAGFIYSVKKPEIRAPFMMVLVVLAAVAPSVSGAHSITTSVAPGTDDGMWNSMQWVKKNTSRDTVVMSWWDFGHLFAVAADRPVTFDGGSQNTPRAYWIGKALTTSNETLSRGILTMLSTSGDLAYETLDNYTDDSGKTAEILTATLGLPREEARAVMTGRYGLSDKEADSVLRYSHPAKPKPFVLVLSSDMLGKAPWWTYFGTWDFKKKTGSRYGYYPSLASSKPQVVNNTTVIQTVNTMVDQNNVLGTIIEKKANTTNATIAVGNNMTVQKINPHRLTIIEGDLLVKNEVVDSDAQLSLIVIGSGNQYTTIIMNRELEDSVFTKLFLLGGFNQTSFKFLHQEPGVLLWTAA	failed
MGRTPETHVIDFRAAEQLLAARDPRGAVKLLDPVIAAHPENTAARLLRARAFFAAAQLRPAELEFTIVLEREPDNAFAHFALARTYERQLRPDQAKRHFRLAAALDPNPQYLKAARLEHHHHHH	not failed
NDQDAIQEKFYPPRFIQVPENMSIDEGRFCRMDFKVSGLPAPDVSWYLNGRTVQSDDLHKMIVSEKGLHSLIFEVVRASDAGAYACVAKNRAGEATFTVQLDVLAKEHKRAPMFIYKPQSKKVLEGDSVKLECQISAIPPPKLFWKRNNEMVQFNTDRISLYQDNTGRVTLLIKDVNKKDAGWYTVSAVNEAGVTTCNTRLDVTARPNQTLPAPKQLRVRPTFSKYLALNGKGLNVKQAFNPEGEFQRLAAQSGLYESEEL	failed
MKQSKIIVAGIGPGSEQDITPAVLAAVREADVVVGYKYYFRFIRDFVRPDAECIDTGMKRERARAEQAFEYAEQGKTVCVISSGDAGIYGMTPLIYEMKRERQSNVEIIALPGI	failed
